The source of these data is paper PMC9242855, “Mechanism of replication origin melting nucleated by CMG helicase assembly” (Nature, 2022).

Test in all cases: cryo-EM structure; dCMGE assembled from purified yeast proteins on nucleosome-flanked (chromatinized) ARS1 origin DNA with 5 mM ATP; undiluted CMG assembly reaction frozen on grids; dimer map at limited resolution, symmetry-expanded CMGE at 3.5 Å
Data set [1] concerns the molecule itself.
Another data set addresses T1, Mcm3 (S. cerevisiae, UniProt P24279 1-971).
T1 construct: Mcm3, subunit of the yeast MCM (Mcm2–7) helicase; Subunit seen within the dCMGE structure; source: purified within Mcm2–7–Cdt1 on the basis of previously established protocols
The settings on record: both partners purified.

A further data set addresses T2, Mcm4 (S. cerevisiae, UniProt P30665 1-933).
T2 construct: Mcm4, subunit of the yeast MCM (Mcm2–7) helicase; Subunit seen within the dCMGE structure; source: purified within Mcm2–7–Cdt1 on the basis of previously established protocols
T2 sequence: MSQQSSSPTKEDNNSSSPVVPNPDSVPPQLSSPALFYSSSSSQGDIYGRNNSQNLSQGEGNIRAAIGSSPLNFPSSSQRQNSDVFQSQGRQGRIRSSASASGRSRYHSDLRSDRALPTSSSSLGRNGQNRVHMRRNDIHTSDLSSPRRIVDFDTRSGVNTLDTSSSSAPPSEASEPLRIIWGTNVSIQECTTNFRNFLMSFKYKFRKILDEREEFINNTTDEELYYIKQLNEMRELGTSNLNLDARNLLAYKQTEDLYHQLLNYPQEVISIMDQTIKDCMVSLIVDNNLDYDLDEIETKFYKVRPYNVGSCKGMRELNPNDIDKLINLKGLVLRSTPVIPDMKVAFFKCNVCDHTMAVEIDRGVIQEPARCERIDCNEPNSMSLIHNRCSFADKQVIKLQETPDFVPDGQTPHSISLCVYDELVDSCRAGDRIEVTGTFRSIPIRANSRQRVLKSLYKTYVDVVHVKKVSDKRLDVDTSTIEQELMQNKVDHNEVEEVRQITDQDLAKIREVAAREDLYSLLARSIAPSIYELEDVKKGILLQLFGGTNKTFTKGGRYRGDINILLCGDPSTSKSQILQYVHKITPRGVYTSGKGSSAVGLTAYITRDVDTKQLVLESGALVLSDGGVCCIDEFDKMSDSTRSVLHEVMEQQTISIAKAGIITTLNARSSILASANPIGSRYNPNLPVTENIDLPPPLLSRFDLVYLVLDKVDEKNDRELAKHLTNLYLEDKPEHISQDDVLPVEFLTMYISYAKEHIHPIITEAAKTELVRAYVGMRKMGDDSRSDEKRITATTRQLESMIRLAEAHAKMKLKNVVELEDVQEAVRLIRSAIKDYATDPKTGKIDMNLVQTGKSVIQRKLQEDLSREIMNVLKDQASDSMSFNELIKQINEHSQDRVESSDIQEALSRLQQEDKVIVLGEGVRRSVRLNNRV
The settings on record: both partners purified.

T1 sequence (P24279 whole entry): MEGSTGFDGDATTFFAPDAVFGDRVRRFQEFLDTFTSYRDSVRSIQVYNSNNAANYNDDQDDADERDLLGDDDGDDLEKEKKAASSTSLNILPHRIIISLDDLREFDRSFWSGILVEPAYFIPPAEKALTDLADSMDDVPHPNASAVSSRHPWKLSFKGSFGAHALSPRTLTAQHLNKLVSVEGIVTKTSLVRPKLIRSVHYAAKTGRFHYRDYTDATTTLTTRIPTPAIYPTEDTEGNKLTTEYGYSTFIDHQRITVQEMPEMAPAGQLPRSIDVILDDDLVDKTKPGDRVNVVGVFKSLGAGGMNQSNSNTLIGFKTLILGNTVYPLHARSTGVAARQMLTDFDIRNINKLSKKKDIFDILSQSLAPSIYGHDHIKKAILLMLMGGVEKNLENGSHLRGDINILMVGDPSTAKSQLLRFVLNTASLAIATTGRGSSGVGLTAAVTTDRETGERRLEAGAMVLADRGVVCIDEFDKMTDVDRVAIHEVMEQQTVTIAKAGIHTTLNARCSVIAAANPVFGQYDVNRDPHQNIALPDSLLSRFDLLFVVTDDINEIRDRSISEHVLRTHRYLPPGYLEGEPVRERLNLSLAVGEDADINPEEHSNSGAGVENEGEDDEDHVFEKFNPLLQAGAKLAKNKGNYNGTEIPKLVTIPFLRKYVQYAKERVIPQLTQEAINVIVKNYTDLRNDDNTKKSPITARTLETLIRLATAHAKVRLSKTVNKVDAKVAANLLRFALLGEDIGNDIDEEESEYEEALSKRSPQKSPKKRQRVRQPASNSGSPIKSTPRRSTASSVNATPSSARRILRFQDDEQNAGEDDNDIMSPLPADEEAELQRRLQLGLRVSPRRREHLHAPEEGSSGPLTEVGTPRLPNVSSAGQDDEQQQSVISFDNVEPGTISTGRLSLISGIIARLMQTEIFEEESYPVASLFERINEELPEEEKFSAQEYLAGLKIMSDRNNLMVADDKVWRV

B1: Mcm6 (natural protein, S. cerevisiae)
chain: MSSPFPADTPSSNRPSNSSPPPSSIGAGFGSSSGLDSQIGSRLHFPSSSQPHVSNSQTGPFVNDSTQFSSQRLQTDGSATNDMEGNEPARSFKSRALNHVKKVDDVTGEKVREAFEQFLEDFSVQSTDTGEVEKVYRAQIEFMKIYDLNTIYIDYQHLSMRENGALAMAISEQYYRFLPFLQKGLRRVVRKYAPELLNTSDSLKRSEGDEGQADEDEQQDDDMNGSSLPRDSGSSAAPGNGTSAMATRSITTSTSPEQTERVFQISFFNLPTVHRIRDIRSEKIGSLLSISGTVTRTSEVRPELYKASFTCDMCRAIVDNVEQSFKYTEPTFCPNPSCENRAFWTLNVTRSRFLDWQKVRIQENANEIPTGSMPRTLDVILRGDSVERAKPGDRCKFTGVEIVVPDVTQLGLPGVKPSSTLDTRGISKTTEGLNSGVTGLRSLGVRDLTYKISFLACHVISIGSNIGASSPDANSNNRETELQMAANLQANNVYQDNERDQEVFLNSLSSDEINELKEMVKDEHIYDKLVRSIAPAVFGHEAVKKGILLQMLGGVHKSTVEGIKLRGDINICVVGDPSTSKSQFLKYVVGFAPRSVYTSGKASSAAGLTAAVVRDEEGGDYTIEAGALMLADNGICCIDEFDKMDISDQVAIHEAMEQQTISIAKAGIHATLNARTSILAAANPVGGRYNRKLSLRGNLNMTAPIMSRFDLFFVILDDCNEKIDTELASHIVDLHMKRDEAIEPPFSAEQLRRYIKYARTFKPILTKEARSYLVEKYKELRKDDAQGFSRSSYRITVRQLESMIRLSEAIARANCVDEITPSFIAEAYDLLRQSIIRVDVDDVEMDEEFDNIESQSHAASGNNDDNDDGTGSGVITSEPPADIEEGQSEATARPGTSEKKKTTVTYDKYVSMMNMIVRKIAEVDREGAEELTAVDIVDWYLLQKENDLGSLAEYWEERRLAFKVIKRLVKDRILMEIHGTRHNLRDLENEENENNKTVYVIHPNCEVLDQLEPQDSS
notes: Mcm6, subunit of the yeast MCM (Mcm2–7) helicase; Subunit seen within the dCMGE structure; source: purified within Mcm2–7–Cdt1 on the basis of previously established protocols
For the molecule B1, the binding result in data set [1] was “binds”.

B2: Mcm7 (natural protein, S. cerevisiae)
chain: MSAALPSIQLPVDYNNLFNEITDFLVTFKQDTLSSDATRNENEDENLDAENIEQHLLEKGPKYMAMLQKVANRELNSVIIDLDDILQYQNEKFLQGTQADDLVSAIQQNANHFTELFCRAIDNNMPLPTKEIDYKDDVLDVILNQRRLRNERMLSDRTNEIRSENLMDTTMDPPSSMNDALREVVEDETELFPPNLTRRYFLYFKPLSQNCARRYRKKAISSKPLSVRQIKGDFLGQLITVRGIITRVSDVKPAVEVIAYTCDQCGYEVFQEVNSRTFTPLSECTSEECSQNQTKGQLFMSTRASKFSAFQECKIQELSQQVPVGHIPRSLNIHVNGTLVRSLSPGDIVDVTGIFLPAPYTGFKALKAGLLTETYLEAQFVRQHKKKFASFSLTSDVEERVMELITSGDVYNRLAKSIAPEIYGNLDVKKALLLLLVGGVDKRVGDGMKIRGDINVCLMGDPGVAKSQLLKAICKISPRGVYTTGKGSSGVGLTAAVMKDPVTDEMILEGGALVLADNGICCIDEFDKMDESDRTAIHEVMEQQTISISKAGINTTLNARTSILAAANPLYGRYNPRLSPLDNINLPAALLSRFDILFLMLDIPSRDDDEKLAEHVTYVHMHNKQPDLDFTPVEPSKMREYIAYAKTKRPVMSEAVNDYVVQAYIRLRQDSKREMDSKFSFGQATPRTLLGIIRLSQALAKLRLADMVDIDDVEEALRLVRVSKESLYQETNKSKEDESPTTKIFTIIKKMLQETGKNTLSYENIVKTVRLRGFTMLQLSNCIQEYSYLNVWHLINEGNTLKFVDDGTMDTDQEDSLVSTPKLAPQTTASANVSAQDSDIDLQDA
notes: Mcm7, subunit of the yeast MCM (Mcm2–7) helicase; Subunit seen within the dCMGE structure; source: purified within Mcm2–7–Cdt1 on the basis of previously established protocols
For B2, the binding result with Mcm3 and with Mcm4 was “binds” in each case.
